Results: US20200040057A1 (IMMATICS BIOTECHNOLOGIES, published 2020)

Molecular target: HLA-B*07 (human)
Assay: UV peptide exchange ELISA; ++++ = yield >75%

Q: For VPMPGVQAV, which peptide exchange yield is on record?
A: > 75%

Q: How did the peptide exchange yield turn out when QPQCSTHIL was run?
A: > 75%

Q: With VPSHWMVAL as the binder, how does the peptide exchange yield read?
A: > 75%

Q: With RPFSVSSISQL as the binder, how does the peptide exchange yield read?
A: > 75%

Q: Which peptide exchange yield does the source give for LPRAGGAF here?
A: > 75%

Q: QPTWNTQTRL was tested. Which peptide exchange yield did it give?
A: > 75%

Q: RLRDYISSL was tested. Which peptide exchange yield did it give?
A: > 75%

Q: RVIQGTTTL was tested. Which peptide exchange yield did it give?
A: > 75%

Q: How did the peptide exchange yield turn out when FPCSALLACF was run?
A: > 75%

Q: How did the peptide exchange yield turn out when LPIARVLTV was run?
A: > 75%

Q: For RPVTGSVC, which peptide exchange yield is on record?
A: > 75%

Q: With APLPRPGAV as the binder, how does the peptide exchange yield read?
A: > 75%

Q: How did the peptide exchange yield turn out when LPRAGGAFLM was run?
A: > 75%

Q: How did the peptide exchange yield turn out when APEGKRLGF was run?
A: > 75%

Q: With QPVHSLCSA as the binder, how does the peptide exchange yield read?
A: > 75%

Q: With LVQSSRSEV as the binder, how does the peptide exchange yield read?
A: > 75%

Q: How did the peptide exchange yield turn out when LPALKEEAF was run?
A: > 75%

Q: Which peptide exchange yield does the source give for TPFPDIHWF here?
A: > 75%

Q: How did the peptide exchange yield turn out when SPIIHSILL was run?
A: > 75%

Q: For QPSLVQAIF, which peptide exchange yield is on record?
A: > 75%

Q: MPVDSFNSM was tested. Which peptide exchange yield did it give?
A: > 75%

Q: For KPHLDRRGAVI, which peptide exchange yield is on record?
A: > 75%

Q: For SPITLQAL, which peptide exchange yield is on record?
A: > 75%

Q: Which peptide exchange yield does the source give for SPTRGSEF here?
A: > 75%

Q: MPVDSFNSML was tested. Which peptide exchange yield did it give?
A: > 75%

Q: QPDHAGIFRVF was tested. Which peptide exchange yield did it give?
A: > 75%

Q: SPMEAELVRRIL was tested. Which peptide exchange yield did it give?
A: > 75%

Q: How did the peptide exchange yield turn out when QPLDICHSF was run?
A: > 75%

Q: Which peptide exchange yield does the source give for IPVTSSVTL here?
A: > 75%

Q: For GPVPSPLAL, which peptide exchange yield is on record?
A: > 75%

Q: How did the peptide exchange yield turn out when LPNTGRIGQLL was run?
A: > 75%

Q: How did the peptide exchange yield turn out when NVNPARKGL was run?
A: > 75%

Q: KPKAVKPKAA was tested. Which peptide exchange yield did it give?
A: > 75%

Q: Which peptide exchange yield does the source give for VPYAAQAAL here?
A: > 75%

Q: For RPYQDAPVA, which peptide exchange yield is on record?
A: > 75%

Q: For MPYVVLTAL, which peptide exchange yield is on record?
A: > 75%

Q: Which peptide exchange yield does the source give for RPSKEMQVTI here?
A: > 75%

Q: For RAAGRRLQL, which peptide exchange yield is on record?
A: > 75%

Q: With SPVPSHWMVAL as the binder, how does the peptide exchange yield read?
A: > 75%

Q: APPPPPPPF was tested. Which peptide exchange yield did it give?
A: > 75%

Q: KPRTPFTTAQLL was tested. Which peptide exchange yield did it give?
A: > 75%

Q: For RPRSLQCVSL, which peptide exchange yield is on record?
A: > 75%

Q: For MPVSAFTVI, which peptide exchange yield is on record?
A: > 75%

Q: LPLNSSTSL was tested. Which peptide exchange yield did it give?
A: > 75%

Q: RPILKEQSSSSF was tested. Which peptide exchange yield did it give?
A: > 75%

Q: How did the peptide exchange yield turn out when YPSSPASAV was run?
A: > 75%

Q: How did the peptide exchange yield turn out when LPSLSHCSQL was run?
A: > 75%

Q: RPRYETGVCA was tested. Which peptide exchange yield did it give?
A: > 75%

Q: How did the peptide exchange yield turn out when RPVLTASSF was run?
A: > 75%

Q: How did the peptide exchange yield turn out when IPHQRSSL was run?
A: > 75%

Q: DVIDDIISL was tested. Which peptide exchange yield did it give?
A: > 75%

Q: With SPSGQRDVSL as the binder, how does the peptide exchange yield read?
A: > 75%

Q: How did the peptide exchange yield turn out when LPRLPVGSLV was run?
A: > 75%

Q: RPDSRLLEL was tested. Which peptide exchange yield did it give?
A: > 75%
